Results taken from patent publication US20250074957A1 (GENERAL HOSPITAL, published 2025).

B1: minCRBN3-NLuc (other, not shown: large carriers)
chain: AGEGDQQDAAHNMGNHLPLLPESEEEDEMEVEDQDSKEAKKPNIINFDTSLPTSHTYLGADMEEFHGRTLHDDDSCQVIPVLPQVMMILIPGQTLPLQLFHPQEVSMVRNLIQKDRTFAVLAYSNVQEREAQFGTTAEIYAYREEQDFGIEIVKVKAIGRQRFKVLELRTQSDGIQQAKVQILPECVLPSTYDAETLMDRIKKQLREWDENLKDDSLPSNPIDFSYRVAACLPIDDVLRIQLLKIGSAIQRLRCELDIMNKCTSLCCKQCQETEITTKNEIFSLSLCGPMAAYVNPHGYVHETLTVYKACNLNLIGRPSTEHSWFPGYAWTVAQCKICASHIGWKFTATKKDMSPQKFWGLTRSALLPTIPDTEDEISPDKVILCL
notes: also called CRBNΔ3; cytosolic (untethered) minCRBN
B2: CRBN (wild-type; endogenous in Jurkat/293T cells or re-expressed in 293T-CRBNΔe5 cells) (other)
chain: MAGEGDQQDAAHNMGNHLPLLPAESEEEDEMEVEDQDSKEAKKPNIINFDTSLPTSHTYLGADMEEFHGRTLHDDDSCQVIPVLPQVMMILIPGQTLPLQLFHPQEVSMVRNLIQKDRTFAVLAYSNVQEREAQFGTTAEIYAYREEQDFGIEIVKVKAIGRQRFKVLELRTQSDGIQQAKVQILPECVLPSTMSAVQLESLNKCQIFPSKPVSREDQCSYKWWQKYQKRKFHCANLTSWPRWLYSLYDAETLMDRIKKQLREWDENLKDDSLPSNPIDFSYRVAACLPIDDVLRIQLLKIGSAIQRLRCELDIMNKCTSLCCKQCQETEITTKNEIFSLSLCGPMAAYVNPHGYVHETLTVYKACNLNLIGRPSTEHSWFPGYAWTVAQCKICASHIGWKFTATKKDMSPQKFWGLTRSALLPTIPDTEDEISPDKVILCL
B3: IKZF3 degron polypeptide, amino acids 130-189 A153M (HaloTag fusion for BRET) (other, not shown: large carriers)
chain: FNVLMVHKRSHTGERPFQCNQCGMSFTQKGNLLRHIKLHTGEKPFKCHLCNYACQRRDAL
notes: also called IKZF3 A153M; A153M-substituted form of the IKZF3 degron
B4: CRBN-Nanoluciferase (NLuc) (other, not shown: large carriers)
chain: B2 chain
notes: Expressed inside transfected 293T cells for NanoBRET (intracellular, not on the surface); also called wild-type CRBN; wtCRBN

Legend:
IKZF3aa130-189-HaloTag = target: T1, IKZF3aa130-189-HaloTag (Homo sapiens, UniProt A2VDW9 130-189 (bovine entry)); experiment: NanoBRET in 293T-CRBNΔe5 cells, pomalidomide dose-response; the Kd is a pomalidomide concentration
T1 construct: Expressed in transfected 293T cells for NanoBRET; labelled with HaloTag NanoBRET 618 ligand; also called IKZF3 degron; degron
T1 sequence (A2VDW9 130-189): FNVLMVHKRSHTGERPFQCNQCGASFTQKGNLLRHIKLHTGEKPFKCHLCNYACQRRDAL
Experimental: (§1) Cells were then trypsinized and seeded into 96 well plates, at 40,000 cells per well. The BRET assay was performed per manufacturer's instructions (Promega™). In brief, cells were incubated for 2 hours with varying concentrations of Pomalidomide or DMSO, 10 μM MG132, and 100 nM HaloTag NanoBRET 618 Ligand. NanoBRET Nano-Glo substrate was added and donor (460 nm) and acceptor (618 nm) emission were measured within 10 minutes (EnVision, Perkin Elmer). Mean corrected milliBRET units (mBU) was calculated.

CD28-IKZF3 (eGFP fusion) = experiment: cell-based or functional assay
[1] = target: CD28-CD3z-IKZF3 (eGFP fusion); experiment: cell-based or functional assay
[2] = target: IKZF3 degron-eGFP fusion (IKZF3 degron-GFP-IRES-mCherry reporter) (Homo sapiens, UniProt A2VDW9 130-189 (bovine entry)); experiment: cell-based or functional assay
Chain of IKZF3 degron-eGFP fusion (IKZF3 degron-GFP-IRES-mCherry reporter) (A2VDW9 130-189): as above

[3] = target: B4; experiment: NanoBRET across a range of pomalidomide concentrations
Experimental: as §1

Binder: B1
- apparent Kd (pomalidomide-dependent dimerization) (IKZF3aa130-189-HaloTag): 30 nM

Binder: B2
- EC50 of pomalidomide-dependent degradation (eGFP/mCherry ratio normalized to DMSO), Jurkat T cells (CD28-IKZF3 (eGFP fusion)): 23.5 nM
- EC50 of pomalidomide-dependent degradation (eGFP/mCherry ratio normalized to DMSO), Jurkat T cells [1]: 8.2 nM
- EC50 of pomalidomide-dependent degradation (eGFP/mCherry ratio normalized to DMSO), Jurkat T cells [2]: 0.42 nM

Binder: B3
- binding result [3]: binds

Binder: B4
- apparent Kd (pomalidomide-dependent dimerization) (IKZF3aa130-189-HaloTag): 30 nM
